Laboratory results taken from patent US20220177547A1 (KYUNGPOOK NATIONAL UNIVERSITY INDUSTRY ACADEMIC COOPERATION …, published 2022).

T1: Interleukin 4 receptor (IL4R) protein (UniProt P24394 26-232, limits assumed)
T1 construct: Purified protein amine-coupled (NHS-EDC) to the SPR chip; The construct is not described
T1 sequence (looked up): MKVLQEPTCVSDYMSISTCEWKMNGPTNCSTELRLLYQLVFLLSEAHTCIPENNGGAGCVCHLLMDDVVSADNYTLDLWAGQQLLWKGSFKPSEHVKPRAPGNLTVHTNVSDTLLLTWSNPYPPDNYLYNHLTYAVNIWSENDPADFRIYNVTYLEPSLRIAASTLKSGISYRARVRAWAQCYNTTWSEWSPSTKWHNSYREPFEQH

B1: TRAIL-ATNC (Active Trimer Nanocage) (other)
chain: MGSSHHHHHHSSGLVPRGSQHMVRERGPQRVAAHITGTRGRSNTLSSPNSKNEKALGRKINSWESSRSGHSFLSNLHLRNGELVIHEKGFYYIYSQTYFRFQEEIKENTKNDKQMVQYIYKYTSYPDPILLMKSARNSCWSKDAEYGLYSIYQGGIFELKENDRIFVSVTNEHLIDMDHEASFFGAFLVGGSGGGSGEFEALQGQVQHLQAAFSQYKKVELFPVDGGGGAEAAAKEAAAKTSDSEAAINRQINLELYASYVYLSMSYYFDRDDVALKNFAKYFLHQSHEEREHAEKLMKLQNQRGGRIFLQDIKKPDCDDWESGLNAMECALHLEKNVNQSLLELHKLATDKNDPHLCDFIETHYLNEQVKAIKELGDHVTNLRKMGAKL
notes: It was expressed from pET-28a and purified on Ni-NTA; also called TRAIL-attached nanocage
B2: TRAIL-ATNC^IL4rP (other)
chain: MGSSHHHHHHSSGLVPRGSQHMVRERGPQRVAAHITGTRGRSNTLSSPNSKNEKALGRKINSWESSRSGHSFLSNLHLRNGELVIHEKGFYYIYSQTYFRFQEEIKENTKNDKQMVQYIYKYTSYPDPILLMKSARNSCWSKDAEYGLYSIYQGGIFELKENDRIFVSVTNEHLIDMDHEASFFGAFLVGGSGGGSGEFEALQGQVQHLQAAFSQYKKVELFPVDGGGGAEAAAKEAAAKTSDSEAAINRQINLELYASYVYLSMSYYFDRDDVALKNFAKYFLHQSHEEREHAEKLMKLQNQRGGRIFLQDIKKPDCDDWESGLNAMECALHLEKNVNQSLLELHKLATDKNDPHLCDFIETHYLNEQVKAIKELGDHVTNLRKMGAKLGGGSGGPLGLAGGGGSGCRKRLDRNC
notes: Ferritin nanocage of 24 fusion polypeptides; It was expressed from pET-28a and purified on Ni-NTA; also called TRAIL trimer fusion protein expressed on the cancer-targeting ferritin nanocage

How the values were obtained:
[1] = target: T2, TRAIL receptor protein Dr5 (UniProt O14763 56-182, limits assumed); experiment: SPR, Dr5 coupled to gold sensor chip
T2 construct: Purified protein amine-coupled (NHS-EDC) to the SPR chip; The construct is not described
Experimental: (§1) The TRAIL receptor protein Dr5 was coupled to a surface of a gold sensor chip by flowing it on the surface of the gold sensor chip for surface resonance plasma (SPR) activated with NHS-EDC, and blocked with ethanolamine. The binding kinetics were analyzed by flowing TRAIL-ATNC dissolved in TBS from 8.33 nM to 0.52 nM by half, and TRAIL from 400 nM to 25 nM by half on the TRAIL receptor-coupled gold sensor chip, respectively. The right channel, which was not coated with Dr5, was used as a control (or reference).
It was determined that TRAIL-ATNC bound to the TRAIL receptor faster than TRAIL, and formed a stable complex in which dissociation was delayed after binding.

[2] = target: T2, TRAIL receptor protein Dr5; experiment: SPR, Dr5 coupled to gold sensor chip, TRAIL-ATNC flowed 8.33 nM to 0.52 nM
Experimental: as §1

[3] = target: T1, Interleukin 4 receptor (IL4R) protein; experiment: SPR, IL4R coupled to gold sensor chip, TRAIL-ATNC^IL4rP flowed 41.67 nM to 0.65 nM
Experimental: Interleukin 4 receptor (IL4R) protein was coupled to the surface of a gold sensor chip for surface resonance plasma (SPR) activated with NHS-EDC, and TRAIL-ATNC^IL4rP dissolved in TBS was flowed from 41.67 nM to 0.65 nM in half on the IL4R-coupled gold sensor chip to analyze binding kinetics. The right channel, which was not coated with IL4R, was used as a reference.

Binder | fold higher kon than TRAIL alone [1] | fold lower KD than TRAIL [1] | fold lower koff than TRAIL alone [1] | Kd [2] | koff [2] | kon [2] | Kd [3]
B1 | ~10 fold | ~100 fold | ~10 fold | 0.411 nM | 0.000217 s⁻¹ | 529000 M⁻¹ s⁻¹ | –
B2 | – | – | – | – | – | – | 37.7 nM
